Patent US20240117018A1

Legend:
Assay in all cases: cell-based or functional assay
[1] = molecular target: HIV-1 Env of pseudovirus P0402_c2_11 (HIV-1)
[2] = molecular target: HIV-1 Env of pseudovirus X2088_c9 (HIV-1)
[3] = molecular target: HIV-1 Env of pseudovirus 3103.v3.c10 (HIV-1)
[4] = molecular target: HIV-1 Env of pseudovirus R3265.c06 (HIV-1)
[5] = molecular target: HIV-1 Env of pseudovirus T251-18 (HIV-1)
[6] = molecular target: HIV-1 Env of pseudovirus X1254_c3 (HIV-1)
[7] = molecular target: HIV-1 Env of pseudovirus X1193_c1 (HIV-1)
[8] = molecular target: HIV-1 Env of pseudovirus 0815.v3.c3 (HIV-1)
[9] = molecular target: HIV-1 Env of pseudovirus A07412M1.vrc12 (HIV-1)
[10] = molecular target: HIV-1 Env of pseudovirus BJOX009000.02.4 (HIV-1)
[11] = molecular target: HIV-1 Env of pseudovirus T278-50 (HIV-1)
[12] = molecular target: HIV-1 Env of pseudovirus P1981_C5_3 (HIV-1)
[13] = molecular target: HIV-1 Env of pseudovirus 263-8 (HIV-1)
[14] = molecular target: HIV-1 Env of pseudovirus 9004SS_A3_4 (HIV-1)
[15] = molecular target: HIV-1 Env of pseudovirus 620345.c01 (HIV-1)
[16] = molecular target: HIV-1 Env of pseudovirus 191084 B7-19 (HIV-1)
[17] = molecular target: HIV-1 Env of pseudovirus 231965.c01 (HIV-1)
[18] = molecular target: HIV-1 Env of pseudovirus 6041.v3.c23 (HIV-1)
[19] = molecular target: HIV-1 Env of pseudovirus 211-9 (HIV-1)
[20] = molecular target: HIV-1 Env of pseudovirus R2184.c04 (HIV-1)
[21] = molecular target: HIV-1 Env of pseudovirus 6545.v4.c1 (HIV-1)
[22] = molecular target: HIV-1 Env of pseudovirus C3347.c11 (HIV-1)
[23] = molecular target: HIV-1 Env of pseudovirus C1080.c03 (HIV-1)
[24] = molecular target: HIV-1 Env of pseudovirus C4118.c09 (HIV-1)
[25] = molecular target: HIV-1 Env of pseudovirus 231966.c02 (HIV-1)
[26] = molecular target: HIV-1 Env of pseudovirus BJOX028000.10.3 (HIV-1)
[27] = molecular target: HIV-1 Env of pseudovirus BJOX010000.06.2 (HIV-1)
[28] = molecular target: HIV-1 Env of pseudovirus BJOX025000.01.1 (HIV-1)
[29] = molecular target: HIV-1 Env of pseudovirus 3301.v1.c24 (HIV-1)
[30] = molecular target: HIV-1 Env of pseudovirus T255-34 (HIV-1)
[31] = molecular target: HIV-1 Env of pseudovirus 3016.v5.c45 (HIV-1)
[32] = molecular target: HIV-1 Env of pseudovirus R1166.c01 (HIV-1)
[33] = molecular target: HIV-1 Env of pseudovirus T257-31 (HIV-1)
[34] = molecular target: HIV-1 Env of pseudovirus 6540.v4.c1 (HIV-1)
[35] = molecular target: HIV-1 Env of pseudovirus 89-F1_2_25 (HIV-1)
[36] = molecular target: HIV-1 Env of pseudovirus 6952.v1.c20 (HIV-1)
[37] = molecular target: HIV-1 Env of pseudovirus X2131_C1_B5 (HIV-1)

Substance: N49P19 (antibody)
- neutralization IC50 [1]: 0.448 µg/mL
- neutralization IC80 [1]: 2.63 µg/mL
- neutralization MPI [1]: 100
- neutralization IC50 [2]: 1.4 µg/mL
- neutralization IC80 [2]: 3.76 µg/mL
- neutralization MPI [2]: 99
- neutralization IC50 [3]: > 50 µg/mL
- neutralization IC80 [3]: > 50 µg/mL
- neutralization MPI [3]: 0
- neutralization IC50 [4]: 0.634 µg/mL
- neutralization IC80 [4]: 2.73 µg/mL
- neutralization MPI [4]: 100
- neutralization IC50 [5]: 0.938 µg/mL
- neutralization IC80 [5]: 4.2 µg/mL
- neutralization MPI [5]: 100
- neutralization IC50 [6]: > 50 µg/mL
- neutralization IC80 [6]: > 50 µg/mL
- neutralization MPI [6]: 48
- neutralization IC50 [7]: 0.54 µg/mL
- neutralization IC80 [7]: 3.15 µg/mL
- neutralization MPI [7]: 99
- neutralization IC50 [8]: 0.176 µg/mL
- neutralization IC80 [8]: 0.743 µg/mL
- neutralization MPI [8]: 100
- neutralization IC50 [9]: 3.89 µg/mL
- neutralization IC80 [9]: 48.8 µg/mL
- neutralization MPI [9]: 80
- neutralization IC50 [10]: 3.66 µg/mL
- neutralization IC80 [10]: 25.6 µg/mL
- neutralization MPI [10]: 87
- neutralization IC50 [11]: > 50 µg/mL
- neutralization IC80 [11]: > 50 µg/mL
- neutralization MPI [11]: 35
- neutralization IC50 [12]: 20.2 µg/mL
- neutralization IC80 [12]: > 50 µg/mL
- neutralization MPI [12]: 68
- neutralization IC50 [13]: 0.344 µg/mL
- neutralization IC80 [13]: 1.51 µg/mL
- neutralization MPI [13]: 99
- neutralization IC50 [14]: 0.661 µg/mL
- neutralization IC80 [14]: 3.09 µg/mL
- neutralization MPI [14]: 100
- neutralization IC50 [15]: > 50 µg/mL
- neutralization IC80 [15]: > 50 µg/mL
- neutralization MPI [15]: 0
- neutralization IC50 [16]: 0.357 µg/mL
- neutralization IC80 [16]: 1.34 µg/mL
- neutralization MPI [16]: 100
- neutralization IC50 [17]: > 50 µg/mL
- neutralization IC80 [17]: > 50 µg/mL
- neutralization MPI [17]: 22
- neutralization IC50 [18]: > 50 µg/mL
- neutralization IC80 [18]: > 50 µg/mL
- neutralization MPI [18]: 32
- neutralization IC50 [19]: 3.23 µg/mL
- neutralization IC80 [19]: 19 µg/mL
- neutralization MPI [19]: 93
- neutralization IC50 [20]: 0.132 µg/mL
- neutralization IC80 [20]: 0.445 µg/mL
- neutralization MPI [20]: 100
- neutralization IC50 [21]: > 50 µg/mL
- neutralization IC80 [21]: > 50 µg/mL
- neutralization MPI [21]: 2
- neutralization IC50 [22]: 3.94 µg/mL
- neutralization IC80 [22]: 25.7 µg/mL
- neutralization MPI [22]: 87
- neutralization IC50 [23]: 0.682 µg/mL
- neutralization IC80 [23]: 3.05 µg/mL
- neutralization MPI [23]: 100
- neutralization IC50 [24]: 0.386 µg/mL
- neutralization IC80 [24]: 1.36 µg/mL
- neutralization MPI [24]: 100
- neutralization IC50 [25]: 0.653 µg/mL
- neutralization IC80 [25]: 4.55 µg/mL
- neutralization MPI [25]: 100
- neutralization IC50 [26]: 7 µg/mL
- neutralization IC80 [26]: > 50 µg/mL
- neutralization MPI [26]: 80
- neutralization IC50 [27]: 4.16 µg/mL
- neutralization IC80 [27]: 19.1 µg/mL
- neutralization MPI [27]: 96
- neutralization IC50 [28]: > 50 µg/mL
- neutralization IC80 [28]: > 50 µg/mL
- neutralization MPI [28]: 24
- neutralization IC50 [29]: 0.302 µg/mL
- neutralization IC80 [29]: 1.42 µg/mL
- neutralization MPI [29]: 98
- neutralization IC50 [30]: 0.948 µg/mL
- neutralization IC80 [30]: 6.22 µg/mL
- neutralization MPI [30]: 97
- neutralization IC50 [31]: > 50 µg/mL
- neutralization IC80 [31]: > 50 µg/mL
- neutralization MPI [31]: 9
- neutralization IC50 [32]: 0.629 µg/mL
- neutralization IC80 [32]: 2.69 µg/mL
- neutralization MPI [32]: 100
- neutralization IC50 [33]: 0.661 µg/mL
- neutralization IC80 [33]: 3 µg/mL
- neutralization MPI [33]: 100
- neutralization IC50 [34]: 11.2 µg/mL
- neutralization IC80 [34]: > 50 µg/mL
- neutralization MPI [34]: 63
- neutralization IC50 [35]: > 50 µg/mL
- neutralization IC80 [35]: > 50 µg/mL
- neutralization MPI [35]: 7
- neutralization IC50 [36]: > 50 µg/mL
- neutralization IC80 [36]: > 50 µg/mL
- neutralization MPI [36]: 0
- neutralization IC50 [37]: 2.52 µg/mL
- neutralization IC80 [37]: 14.4 µg/mL
- neutralization MPI [37]: 91
